Experimental data reported in publication PMC2872554 (Nature structural & molecular biology, 2010).
Blank lines part the entries; values can stand above or below the molecule they belong to.

Legend:
[1] = molecular target: mouse E-cadherin EC1-2 AA extension mutant (mouse); assay: AUC
[2] = molecular target: mouse E-cadherin EC1-2 E89A (mouse); assay: AUC
[3] = molecular target: mouse E-cadherin EC1-2 K14E (mouse); assay: AUC
[4] = molecular target: mouse E-cadherin EC1-2 K14S (mouse); assay: AUC
[5] = molecular target: mouse E-cadherin EC1-2 W2A (mouse); assay: AUC
[6] = molecular target: mouse E-cadherin EC1-2 Y142R (mouse); assay: AUC
[7] = molecular target: mouse E-cadherin EC1-2 fragment, wild type (mouse); assay: AUC
[8] = molecular target: C-terminally biotinylated mouse cadherin-6 EC1-2 M188D (mouse); assay: SPR
[9] = molecular target: mouse cadherin-6 EC1-2 M188D (mouse); assay: AUC
[10] = molecular target: mouse cadherin-6 EC1-2 W4A (mouse); assay: AUC
[11] = molecular target: mouse cadherin-6 EC1-2 fragment, wild type (mouse); assay: AUC
[12] = molecular target: the molecule itself; assay: crystal structure

Molecule: mouse E-cadherin EC1-2 AA extension mutant (domain or fragment)
- Kd [1]: 811 µM

Molecule: mouse E-cadherin EC1-2 K14E (domain or fragment)
- Kd [3]: 117 µM

Molecule: mouse E-cadherin EC1-2 K14S (domain or fragment)
- Kd [4]: 96 µM

Molecule: mouse E-cadherin EC1-2 Y142R (domain or fragment)
- Kd [6]: 77.4 µM

Molecule: mouse cadherin-6 EC1-2 W4A (domain or fragment)
- Kd [10]: 321 µM

Molecule: mouse cadherin-6 EC1-2 fragment, wild type (domain or fragment)
- Kd [11]: 3.1 µM

B1: mouse N-cadherin EC1-2 fragment, wild type (domain or fragment)
chain: DWVIPPINLPENSRGPFPQELVRIRSDRDKNLSLRYSVTGPGADQPPTGIFIINPISGQLSVTKPLDRELIARFHLRAHAVDINGNQVENPIDIVINVIDMNDNRPEFLHQVWNGSVPEGSKPGTYVMTVTAIDADDPNALNGMLRYRILSQAPSTPSPNMFTINNETGDIITVAAGLDREKVQQYTLIIQATDMEGNPTYGLSNTATAVITVTD
- binding result [12]: binds

Further lines, results first:

- Kd [2]: 293 µM
Molecule: mouse E-cadherin EC1-2 E89A (domain or fragment)

- Kd [5]: 916 µM
Molecule: mouse E-cadherin EC1-2 W2A (domain or fragment)

- Kd [7]: 98.6 µM
Molecule: mouse E-cadherin EC1-2 fragment, wild type (domain or fragment)

- binding response [8]: < 10 RU
- Kd [9]: 12.6 µM
Molecule: mouse cadherin-6 EC1-2 M188D (domain or fragment)
